Laboratory results from US7960115B2, “DNA binding protein” (Wright State University, priority 2001, dated 2011).

Key:
[1] = molecular target: T1, DUE-B binding to dsDNA derived from the DUE sequence (Homo sapiens, UniProt Q8TEA8); assay: Fluorescence polarization assay of DUE-B binding to dsDNA
T1 construct: 6his (N); V5 (N); made in house; host or cells: baculovirus / SF9 insect cells
T1 sequence (Q8TEA8 1-209): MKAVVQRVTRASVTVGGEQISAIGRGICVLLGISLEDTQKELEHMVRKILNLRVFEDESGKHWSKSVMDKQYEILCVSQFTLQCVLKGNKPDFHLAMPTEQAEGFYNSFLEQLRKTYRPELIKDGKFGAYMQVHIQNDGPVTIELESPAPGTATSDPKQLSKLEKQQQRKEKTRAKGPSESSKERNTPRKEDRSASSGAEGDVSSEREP
From the text: Described herein is the first generation of a novel assay for determining the effects of molecules on the association of DUE-B with double stranded DNA (dsDNA). This assay uses fluorescence polarization to measure the interaction of DUE-B with dsDNA. This assay consists of 4 components: • a) a dsDNA derived from the DUE sequence:
• Both the sense and antisense strands are labeled with FITC at the 3′ end using a 6 carbon spacer. • b) Purified DUE-B. Human DUE-B tagged at the amino terminus with the 6his and V5 tags is synthesized in baculovirus and purified using Ni^2+-Sepharose™ chromatography. • c) Reaction buffer (1×): […] Tris HCl (pH 7.5), 800 mM NaCl, 10 mM EDTA, 100 mM β-mercaptoethanol, 1% (w/v) Tween-20™. • d) Fluorescence polarization plate reader (Tecan Polarion™ or other equivalent device)
A mastermix is prepared consisting of 1× reaction buffer, 2 nM labeled oligo and 0.125 or 0.250 ug DUE-B per 100 ul of mastermix. Compounds (in this case steroids) are added to the bottom of a 96 well plate. 100 ul of mastermix is added to each well and allowed to equilibrate for 30 sec. Fluorescence polarization is then measured.
In FIG. 23A, the effect of increasing concentrations of DUE-B on the polarization of dsDNA was assessed. As expected, polarization of the dsDNA becomes saturated as the DUE-B protein concentration increases. […]

[2] = system: DNA replication in Xenopus oocyte extract; assay: Replication in Xenopus oocyte extracts; assay type: biochemical, Xenopus laevis
[3] = ATPase activity by thin layer chromatography; assay type: biochemical
Protocol: In FIG. 11, DUE-B expressed in baculovirus infected insect cells was chromotographed as in FIG. 8. To locate the eluted DUE-B, fractions were assayed by ELISA using DUE-B antibody or 6his antibody. ATPase activity was monitored by thin layer chromatography of alternate fractions incubated with gamma-^32P-ATP. […] In FIG. 12, time courses of ATPase activity were measured for three concentrations of DUE-B protein.
Purified DUE-B (200-1000 ng) expressed in bacteria or insect cells, or cell extracts from HeLa cells (˜500 ng) or Xenopus oocytes (˜500 ng), were chromatographed on a one-meter Sephacryl™ S-200 column. Protein elution was monitored by Western blot or by ELISA using antibodies to DUE-B or the his6 tag. ATPase activity was monitored by thin layer chromatography on PEI cellulose (Patrick, S. M., et al., Biochem. Biophys. Acta 1354:279-290, 1997). RNA was isolated using an RNAeasy kit (Qiagen) and DUE-B mRNA expression was monitored by Northern blotting of total RNA electrophoresed on denaturing formaldehyde/agarose gels using a DUE-B cDNA probe labeled with alpha-^32P-dCTP by random primer extension.

Molecule	effect on the dsDNA binding of DUE-B on retest ([1]; retest in two different concentrations of DUE-B, FIG. 24B)	increase in polarization of dsDNA by DUE-B ([1]; steroid at 10 uM, FIG. 24A) [%]	effect on DNA replication, time course ([2]; double stranded DNA preincubated in extract, DUE-B added with alpha-32P-dCTP, FIG. 18A)	effect on replication of single stranded DNA ([2]; oocyte extract, FIG. 20D)	effect on replication of sperm chromatin ([2]; preincubated 30' with the extract versus added simultaneously with sperm chromatin, FIG. 19)	effect on MCM7 loading (pre-RC formation) on chromatin ([2]; sperm chromatin, anti-MCM7 immunoblot, FIG. 20C)	ATPase activity ([3]; baculovirus expressed DUE-B, FIG. 12)	ATP hydrolyzed ([3]; present assay conditions)
C[C@]12CC[C@@H]3c4ccc(O)cc4CC[C@H]3[C@@H]1CC(O)C2O (some centres unmarked) [Steroid E2850, 1,3,5(10)-estratrien-3,16,17-triol]	stimulatory effect of E2850 was duplicated	100	–	–	–	–	–	–
DUE-B: human DNA Unwinding Element binding protein (SEQ ID NO:2), baculovirus expressed, binds the c-myc replication origin DUE (protein, listed as Homo sapiens) MKAVVQRVTRASVTVGGEQISAIGRGICVLLGISLEDTQKELEHMVRKILNLRVFEDESGKHWSKSVMDKQYEILCVSQFTLQCVLKGNKPDFHLAMPTEQAEGFYNSFLEQLRKTYRPELIKDGKFGAYMQVHIQNDGPVTIELESPAPGTATSDPKQLSKLEKQQQRKEKTRAKGPSESSKERNTPRKEDRSASSGAEGDVSSEREP	–	–	transiently inhibited DNA replication	does not inhibit replication of single stranded DNA	more effective at inhibiting replication	does not inhibit MCM7 loading	approximately 30 fmol gamma-32P-ATP hydrolyzed	> 0.5 fmol ATP per minute per fmol protein
